Here are results for 18 variants from IntAct's records for PubMed 22244764.

The labels stand for the following.
B1: PHD finger protein 12 (Mus musculus), Q5SPL2 (parent)
chain: MWEKMETKTIVYDLDTSGGLMEQIQALLAPPKTDEAEKRSRKPEKESRRSGRATNHDSCDSCKEGGDLLCCDHCPAAFHLQCCNPPLSEEMLPPGEWMCHRCTVRRKKREQKKELGHVNGLVDKSSKRTTSPSSDTDLLDRPASKTELKAIAHARILERRASRPGTPTSNASTETPTSEHNDVDEDIVDVDEEPVAAEPDYVQPQLRRPFELLIAAAMERNPTQFQLPNELTCTTALPGSSKRRRKEETTGKNVKRTQHELDHNGLVPLPVKVCFTCNRSCRVAPLIQCDYCPLLFHMDCLEPPLTAMPLGRWMCPNHIEHVVLNQKNLTLSNRCQVFDRFQDTISQHVVKVDFLNRIHKKHPPNRRVLQSVKRRSLKVPDAIKSQYQFPPPLIAPAAIRDGELICSGVPEESQTHLLNSEHLATQAEQQEWLCSVVALQCSILKHLSAKQMPSPWDSEQTEKADIKPVIVTDSSITTSLQTADKAPLPSHYPLSCPSAVSTQNSLGCSPPHQPPTLEDISCSSCVEKSKKAPCGTANGPVNTEIKANGPHLYSSPTDSTDPRRLPGANTPLPGLTHRQGWPRPLTPPSAGGLQNHVGIIVKTENATGPSSCPQRSLVPVPSLPPSIPSSCASIENTSTLHRKTVQSQIGPSSTESRPLGSPPNATRVLTPPQAAGDSILATGANQRFCSPAPSSDGKVSPGTLSIGSALTVPSFPANSTAMVDLTNSLRAFMDVNGEIEINMLDEKLIKFLALQRVHQLFPSRVQASPGNVGTHPLASGGHHPEVQRKEVQARAVFCPLLGLGGAVNMCYRTLYIGTGADMDVCLTNYGHCNYVSGKHACIFYDENTKHYELLNYSEHGTTVDNVLYSCDFSEKTPPTPPSSIVAKVQSVIRRRRHQKQDEEPSEEAAMMSSQAQGPQRRPCNCKASSSSLIGGSGAGWEGTALLHHGSYIKLGCLQFVFSITEFATKQPKGDASLLQDGVLAEKLSLKPHQGPVLRSNSVP
B2: Mortality factor 4-like protein 1 (Homo sapiens), Q9UBU8-2 (parent)
chain: MAPKQDPKPKFQEGERVLCFHGPLLYEAKCVKVAIKDKQVKYFIHYSGWNKNWDEWVPESRVLKYVDTNLQKQRELQKANQEQYAEGKMRGAAPGKKTSGLQQKNVEVKTKKNKQKTPGNGDGGSTSETPQPPRKKRARVDPTVENEETFMNRVEVKVKIPEELKPWLVDDWDLITRQKQLFYLPAKKNVDSILEDYANYKKSRGNTDNKEYAVNEVVAGIKEYFNVMLGTQLLYKFERPQYAEILADHPDAPMSQVYGAPHLLRLFVRIGAMLAYTPLDEKSLALLLNYLHDFLKYLAKNSATLFSASDYEVAPPEYHRKAV
B3: PHD finger protein 12 (Homo sapiens), Q96QT6 (parent)
chain: MWEKMETKTIVYDLDTSGGLMEQIQALLAPPKTDEAEKRSRKPEKEPRRSGRATNHDSCDSCKEGGDLLCCDHCPAAFHLQCCNPPLSEEMLPPGEWMCHRCTVRRKKREQKKELGHVNGLVDKSGKRTTSPSSDTDLLDRSASKTELKAIAHARILERRASRPGTPTSSASTETPTSEQNDVDEDIIDVDEEPVAAEPDYVQPQLRRPFELLIAAAMERNPTQFQLPNELTCTTALPGSSKRRRKEETTGKNVKKTQHELDHNGLVPLPVKVCFTCNRSCRVAPLIQCDYCPLLFHMDCLEPPLTAMPLGRWMCPNHIEHVVLNQKNMTLSNRCQVFDRFQDTVSQHVVKVDFLNRIHKKHPPNRRVLQSVKRRSLKVPDAIKSQYQFPPPLIAPAAIRDGELICNGIPEESQMHLLNSEHLATQAEQQEWLCSVVALQCSILKHLSAKQMPSHWDSEQTEKADIKPVIVTDSSVTTSLQTADKTPTPSHYPLSCPSGISTQNSLSCSPPHQSPALEDIGCSSCAEKSKKTPCGTANGPVNTEVKANGPHLYSSPTDSTDPRRLPGANTPLPGLSHRQGWPRPLTPPAAGGLQNHTVGIIVKTENATGPSSCPQRSLVPVPSLPPSIPSSCASIENTSTLQRKTVQSQIGPPLTDSRPLGSPPNATRVLTPPQAAGDGILATTANQRFSSPAPSSDGKVSPGTLSIGSALTVPSFPANSTAMVDLTNSLRAFMDVNGEIEINMLDEKLIKFLALQRIHQLFPSRVQPSPGSVGTHQLASGGHHIEVQRKEVQARAVFYPLLGLGGAVNMCYRTLYIGTGADMDVCLTNYGHCNYVSGKHACIFYDENTKHYELLNYSEHGTTVDNVLYSCDFSEKTPPTPPSSIVAKVQSVIRRRRHQKQDEEPSEEAAMMSSQAQGPQRRPCNCKASSSSLIGGSGAGWEGTALLHHGSYIKLGCLQFVFSITEFATKQPKGDASLLQDGVLAEKLSLKPHQGPVLRSNSVP

Variants of B1 are the subject of the first assay. The note with it: with MORF4L1, Q9UBU8-2.
Turning to L227A, the “effect of a mutation on the interaction” value is listed as “disrupting interaction”.
The same measure, in the same setting: with F210A the entry was “disrupting interaction”; with L213A, “disrupting interaction”; with P228A, “decreasing interaction”.
Take F225A: the “effect of a mutation on the interaction” value was “disrupting interaction strength”.

The next assay covers variants of B2. The conditions noted are these: with phf12_mouse Phf12, Q5SPL2.
On to L287A, for which the “effect of a mutation on the interaction” value is “decreasing interaction”.
On the same count and under the same terms, with V227A the entry was “decreasing interaction”.
Regarding L168A, the “effect of a mutation on the interaction” value is on record as “decreasing interaction”.

In a further assay the parent is B2. The conditions noted are these: with phf12_human PHF12, Q96QT6.
In the case of L287A, the “effect of a mutation on the interaction” value is given as “decreasing interaction”.
M228A: the “effect of a mutation on the interaction” value is on record as “decreasing interaction”.
For the variant Y235A, the “effect of a mutation on the interaction” value was “disrupting interaction”.
As for W172A, the “effect of a mutation on the interaction” value was “decreasing interaction”.
With V227A, the “effect of a mutation on the interaction” value is reported as “decreasing interaction”.
As to V268A, the “effect of a mutation on the interaction” value is “decreasing interaction”.

The variants in a further assay derive from B3. The conditions noted are these: with MORF4L1, Q9UBU8-2.
F225A: the “effect of a mutation on the interaction” value is recorded as “decreasing interaction”.
Same read-out and setting: the value for F210A was “decreasing interaction”; that for N221E was “decreasing interaction”.
For L227A, the “effect of a mutation on the interaction” value was “decreasing interaction”.
On to L213A, for which the “effect of a mutation on the interaction” value was “decreasing interaction”.
Still for that read-out and setting: with P228A the entry was “decreasing interaction”.
